Measurements: US20040161448

Tests used:
[1] = biological target: T1, Soybean Kunitz Trypsin Inhibitor (UniProt P01070)
T1 sequence: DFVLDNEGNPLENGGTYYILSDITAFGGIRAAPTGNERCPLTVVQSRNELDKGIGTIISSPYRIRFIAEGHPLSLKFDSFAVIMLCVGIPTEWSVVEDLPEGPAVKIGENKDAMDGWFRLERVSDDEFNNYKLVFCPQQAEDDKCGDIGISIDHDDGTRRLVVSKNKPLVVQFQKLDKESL

[2] = biological target: T2, soybean Bowman-Birk Inhibitor (UniProt P01055)
T2 sequence: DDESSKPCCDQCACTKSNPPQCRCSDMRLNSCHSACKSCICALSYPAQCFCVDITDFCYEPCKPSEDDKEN

soybean agglutinin (SBA) = soybean agglutinin (SBA) (UniProt P05046)
Chain of soybean agglutinin (SBA) (P05046 33-285): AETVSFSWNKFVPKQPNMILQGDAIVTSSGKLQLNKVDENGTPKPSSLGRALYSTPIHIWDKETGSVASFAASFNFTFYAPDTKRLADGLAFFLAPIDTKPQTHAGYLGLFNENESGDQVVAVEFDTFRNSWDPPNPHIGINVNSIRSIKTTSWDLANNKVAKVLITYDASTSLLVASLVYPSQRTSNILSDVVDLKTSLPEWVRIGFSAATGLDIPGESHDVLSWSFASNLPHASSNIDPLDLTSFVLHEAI

Which results are given for “protease derived from Bacillus sp. NCIMB 40484”?
% of anti-nutritional factor degraded [1]: 100%; % of anti-nutritional factor degraded [2]: 41%; % of anti-nutritional factor degraded (soybean agglutinin (SBA)): 21%
